Series [1] concerns the molecule itself. Briefly: SEC-coupled SAXS.
Series [2] concerns the target T1, HerA harbouring both M51L and M82L mutations (Sulfolobus solfataricus, UniProt Q97WG8 1-500, M51L | M82L).
T1 sequence (looked up): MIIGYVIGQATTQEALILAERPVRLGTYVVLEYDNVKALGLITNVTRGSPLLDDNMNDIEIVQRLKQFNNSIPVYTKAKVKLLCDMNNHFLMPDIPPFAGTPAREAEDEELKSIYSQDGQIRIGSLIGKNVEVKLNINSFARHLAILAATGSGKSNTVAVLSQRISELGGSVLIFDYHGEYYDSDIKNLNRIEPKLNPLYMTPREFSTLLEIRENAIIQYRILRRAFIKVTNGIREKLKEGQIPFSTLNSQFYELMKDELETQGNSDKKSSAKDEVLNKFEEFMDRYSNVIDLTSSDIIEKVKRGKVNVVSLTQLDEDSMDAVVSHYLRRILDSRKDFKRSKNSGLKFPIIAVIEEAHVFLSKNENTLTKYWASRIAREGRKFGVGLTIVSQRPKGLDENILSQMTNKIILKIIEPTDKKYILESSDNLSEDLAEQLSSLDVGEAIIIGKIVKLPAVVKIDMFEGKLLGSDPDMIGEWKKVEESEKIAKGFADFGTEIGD
The experiment in a line: SEC-coupled SAXS.

Series [3] concerns the target T2, native HerA (S. solfataricus, Sso2251) (Sulfolobus solfataricus, UniProt Q97WG8 1-500).
T2 sequence (looked up): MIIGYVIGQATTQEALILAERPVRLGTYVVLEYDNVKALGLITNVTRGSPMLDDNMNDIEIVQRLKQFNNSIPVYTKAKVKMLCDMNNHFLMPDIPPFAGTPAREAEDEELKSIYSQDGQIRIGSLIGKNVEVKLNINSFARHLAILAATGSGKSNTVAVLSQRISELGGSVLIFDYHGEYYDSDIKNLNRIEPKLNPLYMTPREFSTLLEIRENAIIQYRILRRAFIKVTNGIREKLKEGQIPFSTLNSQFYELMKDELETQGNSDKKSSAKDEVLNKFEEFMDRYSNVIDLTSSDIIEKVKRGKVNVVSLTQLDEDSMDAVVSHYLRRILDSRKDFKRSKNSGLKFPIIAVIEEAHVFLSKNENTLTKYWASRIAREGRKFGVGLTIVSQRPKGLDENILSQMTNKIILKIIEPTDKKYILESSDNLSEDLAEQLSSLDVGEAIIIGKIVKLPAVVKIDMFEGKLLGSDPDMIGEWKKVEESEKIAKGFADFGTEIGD
The experiment in a line: SEC. Background: In gel filtration, larger molecules generally elute earlier.

We go through 2 molecules from publication PMC4376295 (Nature communications, 2014).

B1: NurA D58A (nuclease inactivated) (enzyme, Sulfolobus solfataricus, UniProt Q97WH1 1-339, looked up)
chain: MIRKIYDKLVESHNEIKNQIYNIANYLKQEIQDKVNEYWNEYVINHEQSETCKFVAIAGGSFGRPMRIGIVYAVGAESVIGDNKGVKTLSEDGQIGIFKPGNDAQERISLLMEALELSLALRDGSKGDYILMDGSLSKKIGNKVDIQQFSDEELKLIRNVDLNGIISIKDERKMRDLLMLLNQFLVSKIIEEYDGNVLWISKVSRGRDLFGTDYPDITVLELFTEKRGFSKLIIKNIDIEKISEIPEIEVLRKMEYTTFYTRLDNGKRVIRVDIVGRVDEKIVKEIMDRLSGVSIKGYPFPLLKAHMDVRFSAMDREKIIKLVGSKLHKDIEWWPSQFY
Consider B1, for which the binding result in series [1] and in series [2] was “binds” each time.

B2: native NurA (S. solfataricus) (enzyme, Sulfolobus solfataricus, UniProt Q97WH1 1-339, looked up)
chain: MIRKIYDKLVESHNEIKNQIYNIANYLKQEIQDKVNEYWNEYVINHEQSETCKFVAIDGGSFGRPMRIGIVYAVGAESVIGDNKGVKTLSEDGQIGIFKPGNDAQERISLLMEALELSLALRDGSKGDYILMDGSLSKKIGNKVDIQQFSDEELKLIRNVDLNGIISIKDERKMRDLLMLLNQFLVSKIIEEYDGNVLWISKVSRGRDLFGTDYPDITVLELFTEKRGFSKLIIKNIDIEKISEIPEIEVLRKMEYTTFYTRLDNGKRVIRVDIVGRVDEKIVKEIMDRLSGVSIKGYPFPLLKAHMDVRFSAMDREKIIKLVGSKLHKDIEWWPSQFY
Turning to B2, the binding result in series [3] is “binds”.
